Drawing on publication PMC3072985, this text covers stoichiometry N for one substance.

The target of this assay is Mycobacterium tuberculosis Bacterioferritin B (BfrB), full length (Mycobacterium tuberculosis H37Rv) (UniProt P9WNE5). The experiment in a line: crystal structure; recombinant BfrB, 11 mg/ml, 20% PEG 3350, 0.1 M Tris pH 8.5, 293 K; 3.0 Å; 24 subunits in the asymmetric unit.

As to “Mycobacterium tuberculosis Bacterioferritin B (BfrB), full length (from UniProt P9WNE5 1-181) (natural protein)”, the stoichiometry N amounted to 24.

As a reminder, the stoichiometry N is a count of units in the complex or per binding partner.
